How the values were obtained:
HeLa Kyoto [1] = test: solubility in G1/S (NP-40 vs SDS abundance) (log2 ratio); higher = more soluble; conditions: cell cycle stage: G1/S
HeLa Kyoto [2] = test: melting temperature (median over replicates), in situ; higher = more thermally stable
HeLa Kyoto [3] = test: solubility change mitosis vs G1/S (difference of NP-40 vs SDS log2 ratios) (log2 ratio difference); higher = more soluble in mitosis
HeLa Kyoto [4] = test: thermal stability score vs G1/S (z-score of summed log2 fold changes over temperatures); higher = more thermally stable than in G1/S
[5] = cell cycle stage: early G1 (4.5 h after nocodazole release)
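Throughout, for melting temperature (median over replicates), in situ: HeLa Kyoto cells synchronized by double thymidine or nocodazole block, proteins quantified by TMT10plex mass spectrometry, three independent biological replicates.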
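Throughout, for solubility change mitosis vs G1/S (difference of NP-40 vs SDS log2 ratios): synchronized HeLa Kyoto cells (double thymidine block for G1/S, nocodazole release for mitosis), protein amounts in NP-40 versus SDS lysates quantified by mass spectrometry, three biological replicates.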
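Throughout, for solubility in G1/S (NP-40 vs SDS abundance): HeLa Kyoto cells arrested at G1/S by double thymidine block, proteins quantified by TMT10plex mass spectrometry in mild NP-40 versus SDS extracts, three biological replicates.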
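Throughout, for thermal stability score vs G1/S (z-score of summed log2 fold changes over temperatures): synchronized HeLa Kyoto cells, proteins quantified by TMT10plex mass spectrometry, three biological replicates, mitosis taken 0.5 h after nocodazole release, G1/S directly after double thymidine block.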

Chain of PPIB (chain, as listed by the source): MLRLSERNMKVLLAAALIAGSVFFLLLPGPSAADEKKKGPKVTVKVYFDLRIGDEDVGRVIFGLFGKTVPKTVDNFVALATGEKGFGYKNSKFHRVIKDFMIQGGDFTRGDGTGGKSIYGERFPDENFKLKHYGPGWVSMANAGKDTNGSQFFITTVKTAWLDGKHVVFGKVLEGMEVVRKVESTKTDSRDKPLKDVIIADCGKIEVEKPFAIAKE

MGTARWLALGSLFALAGLLEGRLVGEEEAGFGECDKFFYAGTPPAGLAADSHVKICQRAEGAERFATLYSTRDRIPVYSAFRAPRPAPGGAEQRWLVEPQIDDPNSNLEEAINEAEAITSVNSLGSKQALNTDYLDSDYQRGQLYPFSLSSDVQVATFTLTNSAPMTQSFQERWYVNLHSLMDRALTPQCGSGEDLYILTGTVPSDYRVKDKVAVPEFVWLAACCAVPGGGWAMGFVKHTRDSDIIEDVMVKDLQKLLPFNPQLFQNNCGETEQDTEKMKKILEVVNQIQDEERMVQSQKSSSPLSSTRSKRSTLLPPEASEGSSSFLGKLMGFIATPFIKLFQLIYYLVVAILKNIVYFLWCVTKQVINGIESCLYRLGSATISYFMAIGEELVSIPWKVLKVVAKVIRALLRILCCLLKAICRVLSIPVRVLVDVATFPVYTMGAIPIVCKDIALGLGGTVSLLFDTAFGTLGGLFQVVFSVCKRIGYKVTFDNSGEL [ENDOD1]
solubility in G1/S (log2) (HeLa Kyoto [1]): -0.0976
melting temperature (HeLa Kyoto [2]; cell cycle stage: G1/S): 57.6 °C
melting temperature (HeLa Kyoto [2]; cell cycle stage: mitosis): 56.6 °C
solubility change mitosis (log2) (HeLa Kyoto [3]): -0.0882
thermal stability score (HeLa Kyoto [4]; [5]): 1.24
thermal stability score (HeLa Kyoto [4]; cell cycle stage: mitosis): -2.33

MKMADAKQKRNEQLKRWIGSETDLEPPVVKRQKTKVKFDDGAVFLAACSSGDTDEVLKLLHRGADINYANVDGLTALHQACIDDNVDMVKFLVENGANINQPDNEGWIPLHAAASCGYLDIAEFLIGQGAHVGAVNSEGDTPLDIAEEEAMEELLQNEVNRQGVDIEAARKEEERIMLRDARQWLNSGHINDVRHAKSGGTALHVAAAKGYTEVLKLLIQAGYDVNIKDYDGWTPLHAAAHWGKEEACRILVDNLCDMEMVNKVGQTAFDVADEDILGYLEELQKKQNLLHSEKRDKKSPLIESTANMDNNQSQKTFKNKETLIIEPEKNASRIESLEQEKVDEEEEGKKDESSCSSEEDEEDDSESEAETDKTKPLASVTNANTSSTQAAPVAVTTPTVSSGQATPTSPIKKFPTTATKISPKEEERKDESPATWRLGLRKTGSYGALAEITASKEGQKEKDTAGVTRSASSPRLSSSLDNKEKEKDSKGTRLAYVAPTIPRRLASTSDIEEKENRDSSSLRTSSSYTRRKWEDDLKKNSSVNEGSTYHKSCSFGRRQDDLISSSVPSTTSTPTVTSAAGLQKSLLSSTSTTTKITTGSSSAGTQSSTSNRLWAEDSTEKEKDSVPTAVTIPVAPTVVNAAASTTTLTTTTAGTVSSTTEVRERRRSYLTPVRDEESESQRKARSRQARQSRRSTQGVTLTDLQEAEKTIGRSRSTRTREQENEEKEKEEKEKQDKEKQEEKKESETSREDEYKQKYSRTYDETYQRYRPVSTSSSTTPSSSLSTMSSSLYASSQLNRPNSLVGITSAYSRGITKENEREGEKREEEKEGEDKSQPKSIRERRRPREKRRSTGVSFWTQDSDENEQEQQSDTEEGSNKKETQTDSISRYETSSTSAGDRYDSLLGRSGSYSYLEERKPYSSRLEKDDSTDFKKLYEQILAENEKLKAQLHDTNMELTDLKLQLEKATQRQERFADRSLLEMEKRERRALERRISEMEEELKMLPDLKADNQRLKDENGALIRVISKLSK [PPP1R12A]
solubility in G1/S (log2) (HeLa Kyoto [1]): -0.42
melting temperature (HeLa Kyoto [2]; cell cycle stage: G1/S): 50.4 °C
melting temperature (HeLa Kyoto [2]; cell cycle stage: mitosis): 50.2 °C
solubility change mitosis (log2) (HeLa Kyoto [3]): 0.0601
thermal stability score (HeLa Kyoto [4]; [5]): -1.62
thermal stability score (HeLa Kyoto [4]; cell cycle stage: mitosis): -0.382

MDLAAAAEPGAGSQHLEVRDEVAEKCQKLFLDFLEEFQSSDGEIKYLQLAEELIRPERNTLVVSFVDLEQFNQQLSTTIQEEFYRVYPYLCRALKTFVKDRKEIPLAKDFYVAFQDLPTRHKIRELTSSRIGLLTRISGQVVRTHPVHPELVSGTFLCLDCQTVIRDVEQQFKYTQPNICRNPVCANRRRFLLDTNKSRFVDFQKVRIQETQAELPRGSIPRSLEVILRAEAVESAQAGDKCDFTGTLIVVPDVSKLSTPGARAETNSRVSGVDGYETEGIRGLRALGVRDLSYRLVFLACCVAPTNPRFGGKELRDEEQTAESIKNQMTVKEWEKVFEMSQDKNLYHNLCTSLFPTIHGNDEVKRGVLLMLFGGVPKTTGEGTSLRGDINVCIVGDPSTAKSQFLKHVEEFSPRAVYTSGKASSAAGLTAAVVRDEESHEFVIEAGALMLADNGVCCIDEFDKMDVRDQVAIHEAMEQQTISITKAGVKATLNARTSILAAANPISGHYDRSKSLKQNINLSAPIMSRFDLFFILVDECNEVTDYAIARRIVDLHSRIEESIDRVYSLDDIRRYLLFARQFKPKISKESEDFIVEQYKHLRQRDGSGVTKSSWRITVRQLESMIRLSEAMARMHCCDEVQPKHVKEAFRLLNKSIIRVETPDVNLDQEEEIQMEVDEGAGGINGHADSPAPVNGINGYNEDINQESAPKASLRLGFSEYCRISNLIVLHLRKVEEEEDESALKRSELVNWYLKEIESEIDSEEELINKKRIIEKVIHRLTHYDHVLIELTQAGLKGSTEGSESYEEDPYLVVNPNYLLED [MCM6]
solubility in G1/S (log2) (HeLa Kyoto [1]): -0.0881
melting temperature (HeLa Kyoto [2]; cell cycle stage: G1/S): 50.6 °C
melting temperature (HeLa Kyoto [2]; cell cycle stage: mitosis): 50.7 °C
solubility change mitosis (log2) (HeLa Kyoto [3]): -0.0695
thermal stability score (HeLa Kyoto [4]; [5]): 3.18
thermal stability score (HeLa Kyoto [4]; cell cycle stage: mitosis): 4.76

MPSTDLLMLKAFEPYLEILEVYSTKAKNYVNGHCTKYEPWQLIAWSVVWTLLIVWGYEFVFQPESLWSRFKKKCFKLTRKMPIIGRKIQDKLNKTKDDISKNMSFLKVDKEYVKALPSQGLSSSAVLEKLKEYSSMDAFWQEGRASGTVYSGEEKLTELLVKAYGDFAWSNPLHPDIFPGLRKIEAEIVRIACSLFNGGPDSCGCVTSGGTESILMACKAYRDLAFEKGIKTPEIVAPQSAHAAFNKAASYFGMKIVRVPLTKMMEVDVRAMRRAISRNTAMLVCSTPQFPHGVIDPVPEVAKLAVKYKIPLHVDACLGGFLIVFMEKAGYPLEHPFDFRVKGVTSISADTHKYGYAPKGSSLVLYSDKKYRNYQFFVDTDWQGGIYASPTIAGSRPGGISAACWAALMHFGENGYVEATKQIIKTARFLKSELENIKGIFVFGNPQLSVIALGSRDFDIYRLSNLMTAKGWNLNQLQFPPSIHFCITLLHARKRVAIQFLKDIRESVTQIMKNPKAKTTGMGAIYGMAQTTVDRNMVAELSSVFLDSLYSTDTVTQGSQMNGSPKPH [SGPL1]
solubility in G1/S (log2) (HeLa Kyoto [1]): -0.0885
melting temperature (HeLa Kyoto [2]; cell cycle stage: G1/S): 53.3 °C
melting temperature (HeLa Kyoto [2]; cell cycle stage: mitosis): 54.3 °C
solubility change mitosis (log2) (HeLa Kyoto [3]): -0.101
thermal stability score (HeLa Kyoto [4]; [5]): -0.294
thermal stability score (HeLa Kyoto [4]; cell cycle stage: mitosis): 0.467

PPIB
solubility in G1/S (log2) (HeLa Kyoto [1]): 0.0181
melting temperature (HeLa Kyoto [2]; cell cycle stage: G1/S): 53.8 °C
melting temperature (HeLa Kyoto [2]; cell cycle stage: mitosis): 54.4 °C
solubility change mitosis (log2) (HeLa Kyoto [3]): 0.0983
thermal stability score (HeLa Kyoto [4]; [5]): 4.65
thermal stability score (HeLa Kyoto [4]; cell cycle stage: mitosis): 4.71

MGDHAWSFLKDFLAGGVAAAVSKTAVAPIERVKLLLQVQHASKQISAEKQYKGIIDCVVRIPKEQGFLSFWRGNLANVIRYFPTQALNFAFKDKYKQLFLGGVDRHKQFWRYFAGNLASGGAAGATSLCFVYPLDFARTRLAADVGKGAAQREFHGLGDCIIKIFKSDGLRGLYQGFNVSVQGIIIYRAAYFGVYDTAKGMLPDPKNVHIFVSWMIAQSVTAVAGLVSYPFDTVRRRMMMQSGRKGADIMYTGTVDCWRKIAKDEGAKAFFKGAWSNVLRGMGGAFVLVLYDEIKKYV [SLC25A4]
solubility in G1/S (log2) (HeLa Kyoto [1]): -0.352
melting temperature (HeLa Kyoto [2]; cell cycle stage: G1/S): 58.1 °C
melting temperature (HeLa Kyoto [2]; cell cycle stage: mitosis): 56.4 °C
solubility change mitosis (log2) (HeLa Kyoto [3]): -0.117
thermal stability score (HeLa Kyoto [4]; [5]): -2.08
thermal stability score (HeLa Kyoto [4]; cell cycle stage: mitosis): -1.11

MEEMSGESVVSSAVPAAATRTTSFKGTSPSSKYVKLNVGGALYYTTMQTLTKQDTMLKAMFSGRMEVLTDSEGWILIDRCGKHFGTILNYLRDGAVPLPESRREIEELLAEAKYYLVQGLVEECQAALQNKDTYEPFCKVPVITSSKEEQKLIATSNKPAVKLLYNRSNNKYSYTSNSDDNMLKNIELFDKLSLRFNGRVLFIKDVIGDEICCWSFYGQGRKIAEVCCTSIVYATEKKQTKVEFPEARIYEETLNILLYEAQDGRGPDNALLEATGGAAGRSHHLDEDEERERIERVRRIHIKRPDDRAHLHQ [KCTD10]
solubility in G1/S (log2) (HeLa Kyoto [1]): -1.29
melting temperature (HeLa Kyoto [2]; cell cycle stage: mitosis): 51.6 °C
solubility change mitosis (log2) (HeLa Kyoto [3]): 0.647
thermal stability score (HeLa Kyoto [4]; [5]): 0.937
thermal stability score (HeLa Kyoto [4]; cell cycle stage: mitosis): 1.24

MTERRRDELSEEINNLREKVMKQSEENNNLQSQVQKLTEENTTLREQVEPTPEDEDDDIELRGAAAAAAPPPPIEEECPEDLPEKFDGNPDMLAPFMAQCQIFMEKSTRDFSVDRVRVCFVTSMMTGRAARWASAKLERSHYLMHNYPAFMMEMKHVFEDPQRREVAKRKIRRLRQGMGSVIDYSNAFQMIAQDLDWNEPALIDQYHEGLSDHIQEELSHLEVAKSLSALIGQCIHIERRLARAAAARKPRSPPRALVLPHIASHHQVDPTEPVGGARMRLTQEEKERRRKLNLCLYCGTGGHYADNCPAKASKSSPAGKLPGPAVEGPSATGPEIIRSPQDDASSPHLQVMLQIHLPGRHTLFVRAMIDSGASGNFIDHEYVAQNGIPLRIKDWPILVEAIDGRPIASGPVVHETHDLIVDLGDHREVLSFDVTQSPFFPVVLGVRWLSTHDPNITWSTRSIVFDSEYCRYHCRMYSPIPPSLPPPAPQPPLYYPVDGYRVYQPVRYYYVQNVYTPVDEHVYPDHRLVDPHIEMIPGAHSIPSGHVYSLSEPEMAALRDFVARNVKDGLITPTIAPNGAQVLQVKRGWKLQVSYDCRAPNNFTIQNQYPRLSIPNLEDQAHLATYTEFVPQIPGYQTYPTYAAYPTYPVGFAWYPVGRDGQGRSLYVPVMITWNPHWYRQPPVPQYPPPQPPPPPPPPPPPPSYSTL [PEG10]
solubility in G1/S (log2) (HeLa Kyoto [1]): 0.144
melting temperature (HeLa Kyoto [2]; cell cycle stage: G1/S): 49.4 °C
melting temperature (HeLa Kyoto [2]; cell cycle stage: mitosis): 49.8 °C
solubility change mitosis (log2) (HeLa Kyoto [3]): -0.00752
thermal stability score (HeLa Kyoto [4]; [5]): 0.275
thermal stability score (HeLa Kyoto [4]; cell cycle stage: mitosis): 0.54

MON2
solubility in G1/S (log2) (HeLa Kyoto [1]): -0.103
melting temperature (HeLa Kyoto [2]; cell cycle stage: G1/S): 49.8 °C
melting temperature (HeLa Kyoto [2]; cell cycle stage: mitosis): 50.1 °C
solubility change mitosis (log2) (HeLa Kyoto [3]): -0.108
thermal stability score (HeLa Kyoto [4]; [5]): -0.177
thermal stability score (HeLa Kyoto [4]; cell cycle stage: mitosis): 0.256
